What was measured:
Assay in all cases: SEC
[1] = target: Bile Salt Hydrolase from Enterococcus faecalis, wild type (Enterococcus faecalis)
[2] = target: EfBSH E269A (Enterococcus faecalis)
[3] = target: EfBSH E269D (Enterococcus faecalis)
[4] = target: EfBSH E269Q (Enterococcus faecalis)
[5] = target: EfBSH R207A (Enterococcus faecalis)

## Bile Salt Hydrolase from Enterococcus faecalis, wild type (enzyme)
[1]
  stoichiometry N: 4

## EfBSH E269A (enzyme)
[2]
  stoichiometry N: 4

## EfBSH E269D (enzyme)
[3]
  stoichiometry N: 4

## EfBSH E269Q (enzyme)
[4]
  stoichiometry N: 4

## EfBSH R207A (enzyme)
[5]
  stoichiometry N: 4
